This series relates to MS2 coat protein. Description: apparent KD of MS2 coat protein; higher = weaker reporter binding. The note with it: Eterna round: R107. A digest of the protocol: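 Apparent KD was obtained for each design as the median of normalised binding-curve fits over its clusters. RNA switches transcribed on-chip from Illumina sequencing clusters were titrated with SNAP-549-labelled MS2 coat protein (twofold steps, 0.7 or 1.5 nM to 3 µM) in 100 mM Tris-HCl pH 7.5, 80 mM KCl, 4 mM MgCl2, without or with constant ligand.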

Where [1] appears, read: input ligand: theophylline 20 uM.
Where [2] appears, read: input ligand: theophylline 2 mM.
[3] abbreviates: input ligand: tryptophan 2.4 mM.

Turning to “GUUAUAGACGGAAGGAGCGCGACCACAUGAGGAUCACCCAUGUAUUGUGUUGGUAAUAGGUCGCAGGUAGGUCGCCGGUUAAUGA [#04 Same State - Arginine B]”, the “apparent KD of MS2 coat protein” value by setting is: (input ligand: arginine 13.2 mM) 27.1 nM; (input ligand: none) 36.6 nM; under setting [1], 50.1 nM; under setting [2], 38 nM; under setting [3], 31 nM.
For “UGAGUUCGCUGAUGGGCUACGUCAGGUGAUACCAGCCACUCCCGCGGCCCUUGGCAGCACAUGAGGAUCACCCAUGUAGAGCUUG [Lazaceonus]” the same measures were 17.9 nM, 15.7 nM, 20.4 nM, 254 nM and 14.1 nM.
For the sequence “GUUAGUUACACGGCCGCCACUCUUUGGCUUGGCUCAAGCUCCCAACAUGAGGAUCACCCAUGUCAGAGGACCGGGUGAACAACGU [theeternabot_sameState_MS2_Trp_B_28]”, the “apparent KD of MS2 coat protein” value is, setting by setting: (input ligand: arginine 13.2 mM) 56.1 nM; under setting [1], 180 nM; under setting [2], 205 nM.
As for “UUGAACAUGAGGAUCACCCAUGUGGAUGAUACCAGCUAAAACAUAAGCCCUUGGCAGCAUUAAAAUGAAAUAUCGAAAAGGAAAG [theeternabot_sameState_MS2_Theo_A_1]”, the “apparent KD of MS2 coat protein” value was 95.1 nM (input ligand: arginine 13.2 mM), 179 nM under setting [1] and 127 nM under setting [3].
Take “UUAAUUAUUGAAUCGUAUUGGUAUUAAGAACGAGGACCGGUACGGCCGCCACUCGUGAUAUACAUGAGGAUCACCCAUGUUAGCA [JR_Nu_SSTryptoA_Sub022]”: the “apparent KD of MS2 coat protein” value runs as follows: (input ligand: arginine 13.2 mM) 15 nM; under setting [1], 18.6 nM; under setting [2], 18.1 nM.
As for “UACCGAUGAAGAAGGAGCGAUUUUAUGUUACAUGAGGAUCACCCAUGUGGACUAGGUGAAGAUCAGGUAGGUCGCUUCAUCGGUA [SSAB NP+V+V2 #20]”, the “apparent KD of MS2 coat protein” value reads like this: (input ligand: arginine 13.2 mM) 19.8 nM; (input ligand: none) 20.3 nM; under setting [1], 31.9 nM; under setting [2], 22 nM; under setting [3], 24.5 nM.
For “UGUAUGUGAUCUGAUACCAGUCCAACUGGUAAAACCUGAGGAUCACCCUGGUAAAAUUGGGACCCUUGGCAGCAGAUCGCAUACU” the same measures were 222 nM, 350 nM, 674 nM, 125 nM and 560 nM.
For “GGUCUCUGGAGCGAUACCAGCUUAAUUGUACUGGCCAGGUACAUGAGGAUCACCCAUGUAAGCCCUUGGCAGCGCUCCAGAGACC [#1 Exclusion - Theophylline B Attempt #12 (HarryS)]” the same measures were 10.6 nM, 12.1 nM, 13.6 nM, 24 nM and 11.6 nM.
For “AUGCCUAGUGGAAGGAGCGAGGGUCUUCCCAACAUGAGGAUCACCCAUGUUCUUUUACACCCUCAGGUAGGUCGCCAUUGGGACA [Tilexete]” the same measures were 41.7 nM, 64.6 nM, 107 nM, 47.6 nM and 82.8 nM.
“AGCGACAUGCGUGAUACCAGCUACAUGAGGAUCACCCAUGUCAGCAGGAAACUGCUGUGUAGCCCUUGGCAGCACAGUGCAUGUC [Exclusion - Theophylline B (Freestyle 28)]”: the “apparent KD of MS2 coat protein” value runs as follows: (input ligand: arginine 13.2 mM) 12.9 nM; under setting [1], 18.1 nM; under setting [3], 13.8 nM.
For the sequence “CUAUAUGGAAACAUAUAGAAGCGAAAGCAACGAGGACCGGUACGGCCGCCACUCGAAGAGUGGUGGACAUGAGGAUCACCCAUGU [Design 3]”, the “apparent KD of MS2 coat protein” value reads like this: (input ligand: arginine 13.2 mM) 40.8 nM; under setting [1], 71.6 nM; under setting [2], 99.6 nM.
For the sequence “GGCCGAUGGUGCGAUACCAGCUUGAGUGUACUGGCCAGGUACAUGAGGAUCACCCAUGUAAGCCCUUGGCAGCGCGUCAGAGGCC [#1 Exclusion - Theophylline B Attempt #21 (HarryS)]”, the “apparent KD of MS2 coat protein” value under setting [1] worked out at 15.5 nM and the “apparent KD of MS2 coat protein” value under setting [3] worked out at 11.3 nM.
Turning to “GGUGGCGGGACUGAUACCAGCCACCACCGAUAGACCACAUGAGGAUCACCCAUGUUGGGUGGCCCUUGGCAGCAGUCUUGCUGCC [#1 Same State - Theophylline B Attempt #12 (HarryS)]”, the “apparent KD of MS2 coat protein” value by setting is: (input ligand: arginine 13.2 mM) 24.2 nM; (input ligand: none) 206 nM; under setting [1], 432 nM; under setting [2], 1880 nM; under setting [3], 907 nM.
The like results for “ACGCUGAUUGAUUACAAUCAGCGAAAAGAUACCAGUGGGUAAUCCCACCCUUGGCAGCUUAAAUAUGAGGAUCACCCAUAUGGUA [TheoAS 18 #MS2Right #BothOrNeither #AlternativeMS2]” were, in that order, 54.6 nM, 108 nM, 155 nM, 412 nM and 86.1 nM.
On to “UUCUUUAAGUCGGCCGCCACUGAAACAUGAGGAUCACCCAUGUAAAUUUGGGAGUAGUUAUAUUACAGGACCGGGACUAUAGUAA [JR_ExcTryptoB_Sub020]”, for which the “apparent KD of MS2 coat protein” value stood at 34.8 nM (input ligand: arginine 13.2 mM), 48.8 nM under setting [1] and 51 nM under setting [2].
With “ACAUGAGGAUCACCCAUGUAGCCUAGGGAAGGAGCGUCGUAAGAGACAGGUAGGUCGCCCGCAUGUGAGUCAUCCAUGACGAGGG [#18 Same State - Arginine A]”, the “apparent KD of MS2 coat protein” value (input ligand: arginine 13.2 mM) amounted to 25.7 nM; the “apparent KD of MS2 coat protein” value (input ligand: none) turned out to be 25.9 nM; the “apparent KD of MS2 coat protein” value under setting [1] amounted to 30.1 nM; the “apparent KD of MS2 coat protein” value under setting [2] is 23.6 nM; the “apparent KD of MS2 coat protein” value under setting [3] was found to be 21.1 nM.
As for “AGCAUUGUAACAGAUACCAGACUUUUAAUGCCUCUAAUAACAUGAGGAUCACCCAUGUAUGUCCCUUGGCAGCUGUUAUGAUGCA [JR_ExcTheophyB_Sub008]”, the “apparent KD of MS2 coat protein” value by setting is: (input ligand: arginine 13.2 mM) 68.1 nM; under setting [1], 171 nM; under setting [3], 112 nM.
For “AGCCCUGUACUAGAUACCAGCUACAUGAGGAUCACCCAUGUGCGUCAAGACUGACUGUGUAGCCCUUGGCAGCUGCUCGCAUGUA [Exclusion - Theophylline B (Freestyle 2)]” the same measures were 19.7 nM, 29.9 nM and 20.9 nM.
As to “AUUAAUAAUAUGUAGACGGCGGAGACGAGACGAGGACCGGUACGGCCGCCACUCGUGUUAGUUAACAUGAGGAUCACCCAUGUUA [#10 Tryptophan A Same State]”, the “apparent KD of MS2 coat protein” value runs as follows: (input ligand: arginine 13.2 mM) 11.2 nM; under setting [1], 17.5 nM; under setting [2], 13.9 nM.
For “CGGUCGGUCGGUCGGUGAGUAUGGGAUGAAGGAGCGUGGGAAGCUACAGGUAGGUCGCAUCCGGGACAUGAGGAUCACCCAUGUU [#19 Same State - Arginine A]”, the “apparent KD of MS2 coat protein” value by setting is: (input ligand: arginine 13.2 mM) 19.8 nM; (input ligand: none) 27.7 nM; under setting [1], 43.3 nM; under setting [2], 41.7 nM; under setting [3], 25.1 nM.
For the sequence “UGACAUUGCUGCGAUACCAGACAUGAGGAUCACCCAUGUACCAAGAAAACGUACAUAAAUGUCCCUUGGCAGCGCAGCAAUGUCU [MAT - Exclusion Theophlline B - Mod of Eli - D25]”, the “apparent KD of MS2 coat protein” value by setting is: (input ligand: arginine 13.2 mM) 170 nM; under setting [1], 593 nM; under setting [3], 806 nM.
As for “UGUCGGCGUAAGUUGGCAUGUCUUGCUGGUCGAGGACCGGUACGGCCGCCACUCGAUCCUUCGCACAUGAGGAUCACCCAUGUUG [SS Tryp A #25]”, the “apparent KD of MS2 coat protein” value is, setting by setting: (input ligand: arginine 13.2 mM) 20.3 nM; under setting [1], 29.3 nM; under setting [2], 20.4 nM.
Regarding “AUAACUGCCAAGGAUCAUGGGUGAGCAGAUACCAGCUAGGAAACUAGCCCUUGGCAGCUGCAACAUGAGGAUCACCCAUGUAAUA [(T)'-(M)'-(T1)-(T2)-(M1)-(M2)_Design8]”, the “apparent KD of MS2 coat protein” value runs as follows: (input ligand: arginine 13.2 mM) 38.5 nM; (input ligand: none) 147 nM; under setting [1], 83.8 nM; under setting [2], 119 nM; under setting [3], 90.4 nM.
For “CUCUGAGUGAGCAAUCACUCAGAGGCGGAUACCAGCGAGGUCCAUCGCCCUUGGCAGCCGAACAUGAGGAUCACCCAUGUCGGUA [#1 Same State - Theophylline A Attempt #22 (HarryS)]”, the “apparent KD of MS2 coat protein” value by setting is: (input ligand: arginine 13.2 mM) 9.29 nM; under setting [1], 13 nM; under setting [3], 11 nM.
Consider “UGUAUGGACUGAAGGAGCGGAAGAUAACCUGAGGAUCACCCGGGUAAUAAGGCGAAAGCCUUCCAGGUAGGUCGCAGUCCAUACU”, for which the “apparent KD of MS2 coat protein” value reads like this: (input ligand: arginine 13.2 mM) 230 nM; (input ligand: none) 293 nM; under setting [1], 334 nM; under setting [2], 419 nM; under setting [3], 250 nM.
As to “UAUAUAUAUCACUAACUGUUGUGGACGUCUCGAGGACCGGUACGGCCGCCACUCGGGCGGCCUCACAUGAGGAUCACCCAUGUCC [XTryp A #4]”, the “apparent KD of MS2 coat protein” value reads like this: (input ligand: arginine 13.2 mM) 92.9 nM; under setting [1], 192 nM; under setting [2], 149 nM.
Consider “UGUAUGGACUGAAGGAGCGCCUCAAAAUAGCUUGAGGAUCACCCAAGUAAGGCGAAAGCCGGGCAGGUAGGUCGCAGUCCAUACU [ArgBX 3]”, for which the “apparent KD of MS2 coat protein” value by setting is: (input ligand: arginine 13.2 mM) 12.3 nM; (input ligand: none) 14.3 nM; under setting [1], 16.6 nM; under setting [2], 15.2 nM; under setting [3], 14.8 nM.
For “AUAAGUGUAAGAUACCGCACGCUGGAGGAAGGAGCGCGGAUUAACGCAGGUAGGUCGCCUCGUACAUGAGGAUCACCCAUGUGGC [#14 Same State - Arginine A]” the same measures were 41.7 nM, 22.5 nM, 41.5 nM, 38.7 nM and 35.2 nM.
For “GCCGCGGCCGGAAUAAACAUGGGUAAAUAACGAGGACCGGUACGGCCGCCACUCGAGAUAAAUAACAUGAGGAUCACCCAUGUAC [Exclusion Tryp A GF11]”, the “apparent KD of MS2 coat protein” value by setting is: (input ligand: arginine 13.2 mM) 43 nM; under setting [1], 111 nM; under setting [2], 123 nM.
The like results for “GGGACUAGAUCGGCCGCCACUGAUGGGACAUGAGGAUCACCCAUGUACGAAGUGAUCCAAUAAAUCAGGACCGGGAUCACUUGUA [Tryp B Ex t6]” were, in that order, 64.3 nM, 137 nM and 173 nM.
On to “CGCACAUGAGGAUCACCCAUGUGAGGGCGGCGAGGACCGGUACGGCCGCCACUCGCAGGACAUGAGGAUCACCCAUGUGCCGCCG [SSTA DOUBLE!!! :-D]”, for which the “apparent KD of MS2 coat protein” value by setting is: (input ligand: arginine 13.2 mM) 32.5 nM; (input ligand: none) 548 nM; under setting [1], 397 nM; under setting [2], 501 nM; under setting [3], 351 nM.
In the case of “UCGAUGGUAUCUGAUACCAGUAGCGUGCGUUACAUGAGGAUCACCCAUGUGCCUAUACUUUACCCUUGGCAGCAGUGGAUUCGAU [theeternabot_sameState_MS2_Theo_B_22]”, the “apparent KD of MS2 coat protein” value was 57.1 nM (input ligand: arginine 13.2 mM), 144 nM under setting [1] and 241 nM under setting [3].
Turning to “GCCGCGGCCGCGAUACACAUGGGUGUGUAACGAGGACCGGUACGGCCGCCACUCGAGAUGAUGUACAUGAGGAUCACCCAUGUAC [Exclusion Tryp A GF13]”, the “apparent KD of MS2 coat protein” value was found to be 11.8 nM (input ligand: arginine 13.2 mM); 11.6 nM (input ligand: none); 15.4 nM under setting [1]; 11.9 nM under setting [2]; 13.9 nM under setting [3].
In the case of “AAUGAGUGGUGGUCAAGUGAUCCUCAUGAACGAGGACCGGUACGGCCGCCACUCGAUAACAUGAGGAUCACCCAUGUAAUAAUAA [|T'-M'-Trp-Ms2|_Design8]”, the “apparent KD of MS2 coat protein” value by setting is: (input ligand: arginine 13.2 mM) 15.6 nM; under setting [1], 18.9 nM; under setting [2], 22.4 nM.

(Values after the supplement of paper PMC9170038.)
